This note sets out measurements from US20170081411A1 (published 2017).

The target of experiment [1] is T1, His-Avidin-FKBP (wild-type FKBP) (biotinylated (position not given)).
T1 construct: His tag and biotin acceptor tag are part of the entry; also called biotinylated wild-type FKBP; biotinylated FKBP
The experiment in a line: AlphaLISA direct format: 30 nM biotinylated FKBP + 30 nM FLAG-FRB, everolimus titrated 1:3 from 600 nM (EC50 is of the everolimus titration). As to the method: (§1) FRB mutations were also ranked in an alternative assay format. […] All dilutions were made in 1× AlphaLISA Immunoassay buffer (PerkinElmer). Anti-Flag acceptor beads (PerkinElmer) were added at 10 ug/ml final concentration and incubated for one hour at room temperature. Streptavidin donor beads (PerkinElmer), were then added at a final concentration of 40 ug/ml and the plate was protected from light and incubated for 30 minutes at room temperature. The plate was then read on the PerkinElmer EnVision Multiplate reader equipped with the Alpha Module using excitation of 680 nm and a 570 nm Emission filter.
For orientation: Bead proximity is the source of the signal in Alpha formats.

For experiment [2], the target named is T1, His-Avidin-FKBP (wild-type FKBP). Put plainly: AlphaLISA direct format, everolimus titrated, EC50 against wild type FRB. As to the method:
as §1

T1 sequence (chain, as listed by the source limits assumed): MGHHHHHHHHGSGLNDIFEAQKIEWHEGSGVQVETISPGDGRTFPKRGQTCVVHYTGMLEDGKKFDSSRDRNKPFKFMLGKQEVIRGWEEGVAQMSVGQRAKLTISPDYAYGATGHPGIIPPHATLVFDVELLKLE

B1: His-FLAG-FRB (wild-type FRB) (other)
chain: MGHHHHHHHHGSDYKDDDDKGSASRILWHEMWHEGLEEASRLYFGERNVKGMFEVLEPLHAMMERGPQTLKETSFNQAYGRDLMEAQEWCRKYMKSGNVKDLTQAWDLYYHVFRRISKTS
notes: His and FLAG tags are part of the entry; also called wild type Flag-FRB
The term EC50 denotes the concentration at which the effect is half-maximal. Turning to B1, the EC50 in experiment [1] was 3.9 nM.

B2: His-FLAG-FRB T2098L (other)
chain: MGHHHHHHHHGSDYKDDDDKGSASRILWHEMWHEGLEEASRLYFGERNVKGMFEVLEPLHAMMERGPQTLKETSFNQAYGRDLMEAQEWCRKYMKSGNVKDLLQAWDLYYHVFRRISKTS
notes: The entry already carries the mutation and the tags; also called T2098L (FLAG tagged)
Take B2: the EC50 in experiment [1] came out at 1.44 nM. Further, the “fold improved against wild type FRB” value in experiment [2] stood at 3 fold.

B3: His-FLAG-FRB E2032I (other)
chain: MGHHHHHHHHGSDYKDDDDKGSASRILWHEMWHEGLIEASRLYFGERNVKGMFEVLEPLHAMMERGPQTLKETSFNQAYGRDLMEAQEWCRKYMKSGNVKDLTQAWDLYYHVFRRISKTS
notes: The entry already carries the mutation and the tags; also called E2032I (FLAG tagged)
As for B3, the EC50 in experiment [1] amounted to 2.46 nM.

B4: His-FLAG-FRB E2032L (other)
chain: MGHHHHHHHHGSDYKDDDDKGSASRILWHEMWHEGLLEASRLYFGERNVKGMFEVLEPLHAMMERGPQTLKETSFNQAYGRDLMEAQEWCRKYMKSGNVKDLTQAWDLYYHVFRRISKTS
notes: The entry already carries the mutation and the tags; also called E2032L (FLAG tagged)
For B4, the EC50 in experiment [1] worked out at 2.15 nM.
